Binding result and Kd data for 9 molecules are collected here from publication PMC11997328, “Structural and functional characterization of the extended-diKH domain from the antiviral endoribonuclease KHNYN”.

Data set [1] concerns the target T1, KHNYN ex-diKH (human, UniProt O15037 8-200). Description: EMSA; 20 uM protein, 0.2 uM RNA; BLI: 20 mM Tris pH 8.0, 50 mM NaCl, 0.5 mM TCEP, 0.01% Tween 20, 8 U/ml RNasin Plus, 25 °C; EMSA: 20 mM Tris pH 8.0, 50 mM NaCl, 0.5 mM TCEP, 5% glycerol, room. As to conditions: protein: recombinant; tags: N-terminal StrepII tag removed by HRV 3C protease; label: 5'-FAM. (In EMSA bound probe runs differently from free probe, usually more slowly.)

Data set [2] has as its target T1, KHNYN ex-diKH. Description: BLI; up to 100 uM protein; BLI: 20 mM Tris pH 8.0, 50 mM NaCl, 0.5 mM TCEP, 0.01% Tween 20, 8 U/ml RNasin Plus, 25 °C; EMSA: 20 mM Tris pH 8.0, 50 mM NaCl, 0.5 mM TCEP, 5% glycerol, room. As to conditions: protein: recombinant; tags: N-terminal StrepII tag removed by HRV 3C protease; label: 5'-biotin. A general note: Biolayer interferometry detects binding as a change in optical thickness at a sensor tip.

Data set [3] has as its target T2, ZAP RBD (human, UniProt Q7Z2W4 1-227). Description: BLI; BLI: 20 mM Tris pH 8.0, 50 mM NaCl, 0.5 mM TCEP, 0.01% Tween 20, 8 U/ml RNasin Plus, 25 °C; EMSA: 20 mM Tris pH 8.0, 50 mM NaCl, 0.5 mM TCEP, 5% glycerol, room. As to conditions: protein: recombinant; tags: N-terminal StrepII tag removed by HRV 3C protease; label: 5'-biotin.
Another data set concerns the target IMP1(KH1-KH2) (UniProt Q9NZI8 194-369). Description: BLI; low uM affinity; value not in material; BLI: 20 mM Tris pH 8.0, 50 mM NaCl, 0.5 mM TCEP, 0.01% Tween 20, 8 U/ml RNasin Plus, 25 °C; EMSA: 20 mM Tris pH 8.0, 50 mM NaCl, 0.5 mM TCEP, 5% glycerol, room. To be noted: protein: recombinant; label: 5'-biotin.
For data set [4], the target named is T2, ZAP RBD. Description: EMSA; 2 uM protein, 0.2 uM RNA; BLI: 20 mM Tris pH 8.0, 50 mM NaCl, 0.5 mM TCEP, 0.01% Tween 20, 8 U/ml RNasin Plus, 25 °C; EMSA: 20 mM Tris pH 8.0, 50 mM NaCl, 0.5 mM TCEP, 5% glycerol, room. To be noted: protein: recombinant; tags: N-terminal StrepII tag removed by HRV 3C protease; label: 5'-FAM.

T2 sequence (Q7Z2W4 1-227): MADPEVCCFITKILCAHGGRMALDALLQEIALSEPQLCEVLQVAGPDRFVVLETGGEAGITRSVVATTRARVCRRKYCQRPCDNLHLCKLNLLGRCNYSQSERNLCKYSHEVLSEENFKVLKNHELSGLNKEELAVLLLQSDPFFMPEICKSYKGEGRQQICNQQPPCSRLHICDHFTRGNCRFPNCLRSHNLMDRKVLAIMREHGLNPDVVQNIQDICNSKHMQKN
T1 sequence (O15037 8-200): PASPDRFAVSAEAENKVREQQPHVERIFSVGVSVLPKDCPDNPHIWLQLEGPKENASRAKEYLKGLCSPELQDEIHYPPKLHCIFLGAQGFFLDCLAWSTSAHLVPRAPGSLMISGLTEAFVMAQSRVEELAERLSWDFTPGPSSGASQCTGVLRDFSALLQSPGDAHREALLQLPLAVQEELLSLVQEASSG
IMP1(KH1-KH2), sequence (Q9NZI8 194-369): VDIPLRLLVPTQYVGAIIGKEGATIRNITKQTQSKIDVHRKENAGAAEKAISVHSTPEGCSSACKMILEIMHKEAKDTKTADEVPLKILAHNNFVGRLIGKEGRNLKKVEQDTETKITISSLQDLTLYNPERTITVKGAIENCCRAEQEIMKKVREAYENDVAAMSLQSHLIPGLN

B1: CpG-depleted 33mer (ssRNA)
RNA: GCAACCACCACUCUAUUUUGUGCAUCAGAUGCU
Consider B1, for which the binding result with KHNYN ex-diKH [1] is reported as “no binding”.

B2: A-rich 33mer (ssRNA)
RNA: AUAACAAAUACACUAAAAUACAAAUCAGAAAAU
Take B2: the binding result with KHNYN ex-diKH [1] is reported as “no binding”.

B3: CpG RNA (Bi-UAAUCGU) (ssRNA)
RNA: UAAUCGU
As a reminder, the Kd is the concentration at which binding is half-saturated. As for B3, the binding result in the data set with KHNYN ex-diKH [2] is on record as “no binding”. For the same molecule, the Kd in the data set with ZAP RBD [3] was 30 nM.

B4: CUG RNA (Bi-UUCUGUU) (ssRNA)
RNA: UUCUGUU
On to B4, for which the binding result with KHNYN ex-diKH [2] is given as “no binding”; in the data set with IMP1(KH1-KH2), “binds”.

B5: CpG-rich 33mer (ssRNA)
RNA: GCAACGACGACGCUAUUUUGCGCAUCAGACGCG
Regarding B5, the figures for the binding result in the data set with KHNYN ex-diKH [1] and in the data set with ZAP RBD [4] were “no binding” and “binds”, respectively.

B6: AU-rich 33mer (ssRNA)
RNA: GUAACUAAUACUCUAUUUUGUUAAUCAGAUAAU
Regarding B6, in the data set with KHNYN ex-diKH [1], the binding result was “no binding”.

B7: C-rich 33mer (ssRNA)
RNA: CUCCUCCCUACACUCCCCUCUCCCGCCGCCCCU
As for B7, the binding result in the data set with KHNYN ex-diKH [1] is listed as “no binding”.

B8: U-rich 33mer (ssRNA)
RNA: GUUUCUUUUACUCUUUGUUACUUUUCAGUUAAU
For the molecule B8, the binding result with KHNYN ex-diKH [1] was “no binding”.

B9: non-CpG RNA (Bi-UUCAGGU) (ssRNA)
RNA: UUCAGGU
In the case of B9, the binding result with KHNYN ex-diKH [2] was “no binding”. Also, in the data set with ZAP RBD [3], the Kd stood at 740 nM.
